Laboratory results as given in doi:10.1101/488049 (bioRxiv, 2018).

Target: T1, KIF1C-GFP (recombinant full-length human KIF1C, 6His-KIF1C-GFP) (human, UniProt O43896 1-1103)
T1 sequence (looked up): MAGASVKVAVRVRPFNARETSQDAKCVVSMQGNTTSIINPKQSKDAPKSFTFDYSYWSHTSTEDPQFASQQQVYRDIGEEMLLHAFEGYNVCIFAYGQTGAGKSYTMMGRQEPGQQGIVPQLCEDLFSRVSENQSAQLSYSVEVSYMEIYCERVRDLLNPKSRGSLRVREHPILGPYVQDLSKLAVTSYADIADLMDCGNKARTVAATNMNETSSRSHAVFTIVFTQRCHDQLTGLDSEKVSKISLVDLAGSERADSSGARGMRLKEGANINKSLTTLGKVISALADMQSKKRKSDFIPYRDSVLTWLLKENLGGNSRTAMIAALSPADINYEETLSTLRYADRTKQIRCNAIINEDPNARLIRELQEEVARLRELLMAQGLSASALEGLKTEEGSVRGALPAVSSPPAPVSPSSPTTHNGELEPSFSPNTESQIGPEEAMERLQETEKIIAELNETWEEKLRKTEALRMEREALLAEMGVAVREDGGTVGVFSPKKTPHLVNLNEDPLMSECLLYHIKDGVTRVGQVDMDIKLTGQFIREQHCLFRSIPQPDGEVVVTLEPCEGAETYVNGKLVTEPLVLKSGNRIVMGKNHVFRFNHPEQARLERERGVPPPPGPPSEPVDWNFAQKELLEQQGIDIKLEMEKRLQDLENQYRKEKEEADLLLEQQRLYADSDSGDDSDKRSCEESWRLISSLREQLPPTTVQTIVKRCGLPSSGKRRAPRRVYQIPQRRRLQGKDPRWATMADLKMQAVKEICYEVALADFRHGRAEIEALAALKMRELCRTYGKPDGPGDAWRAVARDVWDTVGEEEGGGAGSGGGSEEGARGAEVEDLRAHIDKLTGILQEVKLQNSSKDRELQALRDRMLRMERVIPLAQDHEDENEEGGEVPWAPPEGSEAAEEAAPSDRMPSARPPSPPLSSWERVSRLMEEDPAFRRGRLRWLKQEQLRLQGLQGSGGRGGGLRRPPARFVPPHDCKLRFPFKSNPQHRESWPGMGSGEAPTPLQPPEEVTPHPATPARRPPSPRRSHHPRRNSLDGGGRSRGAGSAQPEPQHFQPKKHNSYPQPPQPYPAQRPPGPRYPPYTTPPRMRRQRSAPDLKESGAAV
Assay: cell-based or functional assay

B1: Hook3-SNAPf labelled with Alexa647 (recombinant human Hook3 with a C-terminal SNAP-tag) (natural protein, UniProt Q86VS8 1-718, looked up)
chain: MFSVESLERAELCESLLTWIQTFNVDAPCQTVEDLTNGVVMAQVLQKIDPAYFDENWLNRIKTEVGDNWRLKISNLKKILKGILDYNHEILGQQINDFTLPDVNLIGEHSDAAELGRMLQLILGCAVNCEQKQEYIQAIMMMEESVQHVVMTAIQELMSKESPVSAGNDAYVDLDRQLKKTTEELNEALSAKEEIAQRCHELDMQVAALQEEKSSLLAENQVLMERLNQSDSIEDPNSPAGRRHLQLQTQLEQLQEETFRLEAAKDDYRIRCEELEKEISELRQQNDELTTLADEAQSLKDEIDVLRHSSDKVSKLEGQVESYKKKLEDLGDLRRQVKLLEEKNTMYMQNTVSLEEELRKANAARSQLETYKRQVVELQNRLSEESKKADKLDFEYKRLKEKVDSLQKEKDRLRTERDSLKETIEELRCVQAQEGQLTTQGLMPLGSQESSDSLAAEIVTPEIREKLIRLQHENKMLKLNQEGSDNEKIALLQSLLDDANLRKNELETENRLVNQRLLEVQSQVEELQKSLQDQGSKAEDSVLLKKKLEEHLEKLHEANNELQKKRAIIEDLEPRFNNSSLKIEELQEALRKKEEEMKQMEERYKKYLEKAKSVIRTLDPKQNQGAAPEIQALKNQLQERDRLFHSLEKEYEKTKSQREMEEKYIVSAWYNMGMTLHKKAAEDRLASTGSGQSFLARQRQATSSRRSYPGHVQPATAR
modifications: Alexa Fluor 647 on the SNAP tag (SNAP-Surface Alexa Fluor 647)
With B1 the “landing rate of KIF1C-GFP on microtubules in single molecule assays, 320 nM KIF1C preincubated with 500 nM Hook3-647” value was 2 fold.
